Two molecules from publication doi:10.1101/2024.09.16.613291 can be followed below.

Experiment [1] has as its target PP2A:B55 holoenzyme (PP2Aa:B55:PP2Ac), purified, active, methylated on PP2Ac L309 (UniProt P30153).
For experiment [2] the target is unchanged. This is another data set of the same source.

Where two headings read alike, the source gives them in different places.

Sequence of UniProt P30153 (P30153 9-589, chain 1 of 3): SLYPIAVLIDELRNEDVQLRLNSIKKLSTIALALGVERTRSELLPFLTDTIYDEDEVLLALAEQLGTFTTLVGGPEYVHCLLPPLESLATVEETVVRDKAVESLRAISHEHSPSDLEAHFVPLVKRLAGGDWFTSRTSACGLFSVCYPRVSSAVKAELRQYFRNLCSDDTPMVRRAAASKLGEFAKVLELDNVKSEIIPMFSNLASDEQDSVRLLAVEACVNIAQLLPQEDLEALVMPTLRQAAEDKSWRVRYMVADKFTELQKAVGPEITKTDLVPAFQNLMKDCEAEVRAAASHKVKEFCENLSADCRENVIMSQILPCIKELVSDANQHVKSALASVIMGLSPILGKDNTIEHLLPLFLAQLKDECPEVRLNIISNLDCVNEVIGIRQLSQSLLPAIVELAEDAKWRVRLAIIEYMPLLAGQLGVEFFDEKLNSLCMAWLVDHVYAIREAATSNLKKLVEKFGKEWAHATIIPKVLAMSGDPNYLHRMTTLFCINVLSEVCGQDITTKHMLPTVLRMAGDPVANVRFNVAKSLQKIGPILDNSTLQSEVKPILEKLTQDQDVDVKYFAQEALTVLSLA
Sequence of UniProt P30153 (P63151 whole entry, chain 2 of 3, further chain): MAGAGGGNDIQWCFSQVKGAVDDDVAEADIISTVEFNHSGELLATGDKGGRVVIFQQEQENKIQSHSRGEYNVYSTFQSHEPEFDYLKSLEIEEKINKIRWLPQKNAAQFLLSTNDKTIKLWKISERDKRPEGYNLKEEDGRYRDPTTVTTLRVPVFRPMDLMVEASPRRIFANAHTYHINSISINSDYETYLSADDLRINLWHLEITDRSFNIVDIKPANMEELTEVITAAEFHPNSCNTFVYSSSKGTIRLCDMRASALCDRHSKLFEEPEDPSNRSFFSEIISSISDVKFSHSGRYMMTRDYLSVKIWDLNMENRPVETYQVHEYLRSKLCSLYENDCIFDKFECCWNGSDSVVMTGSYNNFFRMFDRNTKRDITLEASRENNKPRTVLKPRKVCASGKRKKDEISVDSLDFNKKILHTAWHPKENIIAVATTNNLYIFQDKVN
Sequence of UniProt P30153 (P67775 whole entry, chain 3 of 3, further chain): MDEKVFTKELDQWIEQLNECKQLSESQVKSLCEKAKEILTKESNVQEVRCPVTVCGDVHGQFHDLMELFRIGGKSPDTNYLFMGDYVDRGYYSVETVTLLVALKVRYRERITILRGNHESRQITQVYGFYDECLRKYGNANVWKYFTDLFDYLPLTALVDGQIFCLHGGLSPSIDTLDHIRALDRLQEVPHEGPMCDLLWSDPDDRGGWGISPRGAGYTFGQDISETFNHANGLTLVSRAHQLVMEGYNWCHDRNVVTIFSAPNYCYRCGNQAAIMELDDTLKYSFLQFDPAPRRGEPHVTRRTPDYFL

RSSNDYTSQMYSAKPYAHILSVPVSETAYPGQTQYQTLQQTQPYAVYEE (domain or fragment) [Eya3 PP2A:B55 interaction domain (aa 62-108) with C-terminal EE]: the IC50 of inhibition of PP2A:B55 (1 nM) dephosphorylation of DiFMUP (50 uM) in experiment [1] was determined as 1100 nM.

B1: p107 interdomain region (residues 612-687) (domain or fragment)
chain: MPMSPLMHPRVKEVRTDSGSLRRDMQPLSPISVHERYSSPTAGSAKRRLFGEDPPKEMLMDKIITEGTKLKIAPSS
Take B1: the IC50 of inhibition of PP2A:B55 (1 nM) dephosphorylation of DiFMUP (50 uM) in experiment [2] turned out to be 245 nM.
